According to patent publication US20180016318A1 (Eli Lilly, published 2018):
Starred links: 1 amine or outer side, 2 acyl side, 3 side chain; linkers in the order of their positions; H or OH if unused. Non-standard residues stand in square brackets, D forms with d. Groups on a side chain read outwards from the residue. No end group written: not given here. *: point of attachment. C20 diacid = O=C(O)CCCCCCCCCCCCCCCCCCC(=O)*; C18 diacid = O=C(O)CCCCCCCCCCCCCCCCC(=O)*; γGlu = O=C(O)[C@H](CCC(=O)[*:2])N[*:1]; NMeI = CC[C@H](C)[C@H](NC)C(=O)O; AEEA = NCCOCCOCC(=O)O

T1: human CRHR1 (corticotropin releasing hormone receptor-1) (human, UniProt P34998 24-415)
T1 sequence (looked up): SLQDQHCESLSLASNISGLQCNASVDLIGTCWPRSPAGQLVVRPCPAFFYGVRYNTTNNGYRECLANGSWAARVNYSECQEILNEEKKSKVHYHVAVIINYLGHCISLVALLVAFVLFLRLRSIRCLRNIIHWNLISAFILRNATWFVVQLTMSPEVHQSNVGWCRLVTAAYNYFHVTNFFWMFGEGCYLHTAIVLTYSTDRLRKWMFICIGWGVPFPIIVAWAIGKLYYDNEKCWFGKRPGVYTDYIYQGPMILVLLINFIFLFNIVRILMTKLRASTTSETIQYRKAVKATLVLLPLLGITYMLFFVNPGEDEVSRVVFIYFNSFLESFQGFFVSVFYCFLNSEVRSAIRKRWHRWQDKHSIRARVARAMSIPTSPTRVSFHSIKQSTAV


Experiments:
[1] = molecular target: human CRHR1 (corticotropin releasing hormone receptor-1) (human) (UniProt P34998); experiment: cell-based or functional assay
[2] = molecular target: T1, human CRHR1 (corticotropin releasing …); experiment: cell-based or functional assay

| Molecule | Average EC50 (nM), cell-based cAMP assay, Y79 cells with endogenous human CRHR1 [1] [nM] | Average EC50 (nM), cell-based cAMP assay, Y79 cells with endogenous human CRHR1 [2] [nM] |
| --- | --- | --- |
| human UCN1 (urocortin-1) (from UniProt P55089 83-122) (ligand) | 7.3 | – |
| [NMeI]VLSLDVPIGLLQILLEQEKQEKEKQQAK([AEEA-AEEA-γGlu-γGlu-C20 diacid])TNAQILAQV-NH2 [Example 4 (SEQ ID NO: 4)] | – | > 100000 |
| [NMeI]VTSLDVPIGLLQILIEQEKQEKEKQQAK([AEEA-AEEA-γGlu-γGlu-C20 diacid])TNAEILAQV-NH2 (N-terminus assumed; SMILES CC[C@H](C)[C@H](NC)C(=O)N[C@H](C(=O)N[C@H](C(=O)N[C@@H](CO)C(=O)N[C@@H](CC(C)C)C(=O)N[C@@H](CC(=O)O)C(=O)N[C@H](C(=O)N1CCC[C@H]1C(=O)N[C@H](C(=O)NCC(=O)N[C@@H](CC(C)C)C(=O)N[C@@H](CC(C)C)C(=O)N[C@@H](CCC(N)=O)C(=O)N[C@H](C(=O)N[C@@H](CC(C)C)C(=O)N[C@H](C(=O)N[C@@H](CCC(=O)O)C(=O)N[C@@H](CCC(N)=O)C(=O)N[C@@H](CCC(=O)O)C(=O)N[C@@H](CCCCN)C(=O)N[C@@H](CCC(N)=O)C(=O)N[C@@H](CCC(=O)O)C(=O)N[C@@H](CCCCN)C(=O)N[C@@H](CCC(=O)O)C(=O)N[C@@H](CCCCN)C(=O)N[C@@H](CCC(N)=O)C(=O)N[C@@H](CCC(N)=O)C(=O)N[C@@H](C)C(=O)N[C@@H](CCCCNC(=O)COCCOCCNC(=O)COCCOCCNC(=O)CC[C@H](NC(=O)CC[C@H](NC(=O)CCCCCCCCCCCCCCCCCCC(=O)O)C(=O)O)C(=O)O)C(=O)N[C@H](C(=O)N[C@@H](CC(N)=O)C(=O)N[C@@H](C)C(=O)N[C@@H](CCC(=O)O)C(=O)N[C@H](C(=O)N[C@@H](CC(C)C)C(=O)N[C@@H](C)C(=O)N[C@@H](CCC(N)=O)C(=O)N[C@H](C(N)=O)C(C)C)[C@@H](C)CC)[C@@H](C)O)[C@@H](C)CC)[C@@H](C)CC)[C@@H](C)CC)C(C)C)[C@@H](C)O)C(C)C) [Example 7 (SEQ ID NO: 7)] | – | ~100000 |
| [NMeI]VLSLDVPIGLLQILLEQEKQEKEKQQAK([AEEA-AEEA-γGlu-γGlu-C18 diacid])TNAQILAQV-NH2 (N-terminus assumed; SMILES CC[C@H](C)[C@H](NC)C(=O)N[C@H](C(=O)N[C@@H](CC(C)C)C(=O)N[C@@H](CO)C(=O)N[C@@H](CC(C)C)C(=O)N[C@@H](CC(=O)O)C(=O)N[C@H](C(=O)N1CCC[C@H]1C(=O)N[C@H](C(=O)NCC(=O)N[C@@H](CC(C)C)C(=O)N[C@@H](CC(C)C)C(=O)N[C@@H](CCC(N)=O)C(=O)N[C@H](C(=O)N[C@@H](CC(C)C)C(=O)N[C@@H](CC(C)C)C(=O)N[C@@H](CCC(=O)O)C(=O)N[C@@H](CCC(N)=O)C(=O)N[C@@H](CCC(=O)O)C(=O)N[C@@H](CCCCN)C(=O)N[C@@H](CCC(N)=O)C(=O)N[C@@H](CCC(=O)O)C(=O)N[C@@H](CCCCN)C(=O)N[C@@H](CCC(=O)O)C(=O)N[C@@H](CCCCN)C(=O)N[C@@H](CCC(N)=O)C(=O)N[C@@H](CCC(N)=O)C(=O)N[C@@H](C)C(=O)N[C@@H](CCCCNC(=O)COCCOCCNC(=O)COCCOCCNC(=O)CC[C@H](NC(=O)CC[C@H](NC(=O)CCCCCCCCCCCCCCCCC(=O)O)C(=O)O)C(=O)O)C(=O)N[C@H](C(=O)N[C@@H](CC(N)=O)C(=O)N[C@@H](C)C(=O)N[C@@H](CCC(N)=O)C(=O)N[C@H](C(=O)N[C@@H](CC(C)C)C(=O)N[C@@H](C)C(=O)N[C@@H](CCC(N)=O)C(=O)N[C@H](C(N)=O)C(C)C)[C@@H](C)CC)[C@@H](C)O)[C@@H](C)CC)[C@@H](C)CC)C(C)C)C(C)C) [Example 3 (SEQ ID NO: 3)] | – | > 100000 |
| IVLSLDVPIGLLQILLEQARARAAREQATTNARILARV-NH2 (ligand) [human UCN2 (urocortin-2)] | – | > 100000 |
| [NMeI]VTSLDVPIGLLQILLEQEKQEKEKQQAK([AEEA-AEEA-γGlu-γGlu-C20 diacid])TNAEILAQV-NH2 [Example 5 (SEQ ID NO: 5)] | – | 33900 |

More lines, now with the values ahead:

| Average EC50 (nM), cell-based cAMP assay, Y79 cells with endogenous human CRHR1 [1] [nM] | Average EC50 (nM), cell-based cAMP assay, Y79 cells with endogenous human CRHR1 [2] [nM] | Molecule |
| --- | --- | --- |
| – | > 100000 | [NMeI]VLSLDVPIGLLQILLEQEKQEKEKQQAK([AEEA-AEEA-γGlu-γGlu-C20 diacid])TNAEILAQV-NH2 (N-terminus assumed; SMILES CC[C@H](C)[C@H](NC)C(=O)N[C@H](C(=O)N[C@@H](CC(C)C)C(=O)N[C@@H](CO)C(=O)N[C@@H](CC(C)C)C(=O)N[C@@H](CC(=O)O)C(=O)N[C@H](C(=O)N1CCC[C@H]1C(=O)N[C@H](C(=O)NCC(=O)N[C@@H](CC(C)C)C(=O)N[C@@H](CC(C)C)C(=O)N[C@@H](CCC(N)=O)C(=O)N[C@H](C(=O)N[C@@H](CC(C)C)C(=O)N[C@@H](CC(C)C)C(=O)N[C@@H](CCC(=O)O)C(=O)N[C@@H](CCC(N)=O)C(=O)N[C@@H](CCC(=O)O)C(=O)N[C@@H](CCCCN)C(=O)N[C@@H](CCC(N)=O)C(=O)N[C@@H](CCC(=O)O)C(=O)N[C@@H](CCCCN)C(=O)N[C@@H](CCC(=O)O)C(=O)N[C@@H](CCCCN)C(=O)N[C@@H](CCC(N)=O)C(=O)N[C@@H](CCC(N)=O)C(=O)N[C@@H](C)C(=O)N[C@@H](CCCCNC(=O)COCCOCCNC(=O)COCCOCCNC(=O)CC[C@H](NC(=O)CC[C@H](NC(=O)CCCCCCCCCCCCCCCCCCC(=O)O)C(=O)O)C(=O)O)C(=O)N[C@H](C(=O)N[C@@H](CC(N)=O)C(=O)N[C@@H](C)C(=O)N[C@@H](CCC(=O)O)C(=O)N[C@H](C(=O)N[C@@H](CC(C)C)C(=O)N[C@@H](C)C(=O)N[C@@H](CCC(N)=O)C(=O)N[C@H](C(N)=O)C(C)C)[C@@H](C)CC)[C@@H](C)O)[C@@H](C)CC)[C@@H](C)CC)C(C)C)C(C)C) [Example 6 (SEQ ID NO: 6)] |
| – | > 10000 | Ac-IVLSLDVPIGLLQILLEQEKQEKEKQQAK([AEEA-AEEA-γGlu-γGlu-C20 diacid])TNAQILAQV-NH2 [Example 2 (SEQ ID NO: 2)] |
| – | ~10000 | Ac-IVLSLDVPIGLLQILLEQEKQEKEKQQAK([AEEA-AEEA-γGlu-γGlu-C18 diacid])TNAQILAQV-NH2 (SMILES CC[C@H](C)[C@H](NC(C)=O)C(=O)N[C@H](C(=O)N[C@@H](CC(C)C)C(=O)N[C@@H](CO)C(=O)N[C@@H](CC(C)C)C(=O)N[C@@H](CC(=O)O)C(=O)N[C@H](C(=O)N1CCC[C@H]1C(=O)N[C@H](C(=O)NCC(=O)N[C@@H](CC(C)C)C(=O)N[C@@H](CC(C)C)C(=O)N[C@@H](CCC(N)=O)C(=O)N[C@H](C(=O)N[C@@H](CC(C)C)C(=O)N[C@@H](CC(C)C)C(=O)N[C@@H](CCC(=O)O)C(=O)N[C@@H](CCC(N)=O)C(=O)N[C@@H](CCC(=O)O)C(=O)N[C@@H](CCCCN)C(=O)N[C@@H](CCC(N)=O)C(=O)N[C@@H](CCC(=O)O)C(=O)N[C@@H](CCCCN)C(=O)N[C@@H](CCC(=O)O)C(=O)N[C@@H](CCCCN)C(=O)N[C@@H](CCC(N)=O)C(=O)N[C@@H](CCC(N)=O)C(=O)N[C@@H](C)C(=O)N[C@@H](CCCCNC(=O)COCCOCCNC(=O)COCCOCCNC(=O)CC[C@H](NC(=O)CC[C@H](NC(=O)CCCCCCCCCCCCCCCCC(=O)O)C(=O)O)C(=O)O)C(=O)N[C@H](C(=O)N[C@@H](CC(N)=O)C(=O)N[C@@H](C)C(=O)N[C@@H](CCC(N)=O)C(=O)N[C@H](C(=O)N[C@@H](CC(C)C)C(=O)N[C@@H](C)C(=O)N[C@@H](CCC(N)=O)C(=O)N[C@H](C(N)=O)C(C)C)[C@@H](C)CC)[C@@H](C)O)[C@@H](C)CC)[C@@H](C)CC)C(C)C)C(C)C) [Example 1 (SEQ ID NO: 1)] |
